# In PMC3462262 (Molecular cell, 2012):
# Molecular target: Ub subunit of the UbcH5c-O~Ub conjugate (UniProt P0CG48 1-76, C-terminus oxyester-linked to Ser85 of UbcH5c)
# Test: NMR titration
binder,measurement,value
"UbcH5c subunit of the UbcH5c-O~Ub conjugate (Cys85Ser, S22R) (enzyme, active site Ser85 oxyester-linked to the Ub C-terminus) not shown",binding result,binds
